Molecular target: T1, GFLV-derived virus-like particles (VLP) in which enhanced GFP is encaged (Grapevine fanleaf virus, isolate not …)
T1 chain: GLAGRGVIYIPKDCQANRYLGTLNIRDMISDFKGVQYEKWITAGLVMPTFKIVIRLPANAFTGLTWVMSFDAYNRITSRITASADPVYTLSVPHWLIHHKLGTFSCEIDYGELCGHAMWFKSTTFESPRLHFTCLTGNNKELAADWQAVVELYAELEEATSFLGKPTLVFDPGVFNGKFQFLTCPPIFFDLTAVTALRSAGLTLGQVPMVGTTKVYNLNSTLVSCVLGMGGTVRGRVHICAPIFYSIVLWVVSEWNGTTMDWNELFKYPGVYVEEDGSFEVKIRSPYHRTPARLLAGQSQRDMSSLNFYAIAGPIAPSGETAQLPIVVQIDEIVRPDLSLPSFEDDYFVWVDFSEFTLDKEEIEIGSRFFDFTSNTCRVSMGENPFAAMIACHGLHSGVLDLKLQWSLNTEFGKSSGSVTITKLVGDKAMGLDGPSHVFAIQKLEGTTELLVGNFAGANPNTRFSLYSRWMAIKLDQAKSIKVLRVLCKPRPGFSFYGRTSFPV
Experiment: MST

B1: Nanobody Nb23 specific to GFLV (VHH)
VHH: QVQLQESGGGSVQVGGSLRVACAASGDTFSGYLAAWFRQAPGKGREGVAAINSKRHTTSYADSVKGRFTISKDNADNIMYLEMNSLKPEDTAIYYCAAADAIGLAEYWSTPTLSAARYKYWGQGTQVTVSS
  Kd: 9.13 nM
